From patent CN114958811A come the findings set out here.

The experiment has as its target RBD-His (近岸生物 货号 DRA42) (SARS-CoV-2) (UniProt P0DTC2).

Substance “hACE2-Fc融合蛋白 (fusion of the human ACE2 extracellular domain with the Fc fragment of human IgG1) (Fc fusion)” had a 亲和力 of 0.54 nM.
